# Results: paper PMC3605307
# Columns and labels:
# [1] = biological target: human TRAIL-R2-Fc L110A/L114A (human) (UniProt O14763); assay: SPR
# [2] = biological target: human TRAIL-R2-Fc M152A (human) (UniProt O14763); assay: SPR
# [3] = biological target: Human TRAIL-R2-Fc V167A (human) (UniProt O14763); assay: SPR
# [4] = biological target: Human TRAIL-R2-Fc D148A (human) (UniProt O14763); assay: SPR
# [5] = biological target: Human TRAIL-R2-Fc F112A (human) (UniProt O14763); assay: SPR
# [6] = biological target: human TRAIL-R2-Fc M152A/R154A/K155A (human) (UniProt O14763); assay: SPR
# [7] = biological target: human TRAIL-R2-Fc R154A (human) (UniProt O14763); assay: SPR
# [8] = biological target: human TRAIL-R2-Fc K155A (human) (UniProt O14763); assay: SPR
# [9] = biological target: human TRAIL-R2-Fc P150A (human) (UniProt O14763); assay: SPR
# [10] = biological target: human TRAIL-R2-Fc E78A/D109A (human) (UniProt O14763); assay: SPR
# [11] = biological target: Human CD155-Fc fusion protein (human) (UniProt P15151); assay: SPR
# [12] = biological target: Human TRAIL-R2-Fc double mutation L110A and L114A (human) (UniProt O14763); assay: SPR
# [13] = biological target: TRAIL-R1-Fc fusion protein (UniProt O00220); assay: SPR
# [14] = biological target: Human TRAIL-R2-Fc fusion protein (wild type) (human) (UniProt O14763); assay: SPR
# [15] = biological target: Human TRAIL-R2-Fc D109A together with E78A (human) (UniProt O14763); assay: SPR
# [16] = biological target: Recombinant UL141 ectodomain (soluble, released from the Fc fusion) (human cytomegalovirus (HCMV), FIX strain) (UniProt Q6RJQ3); assay: SEC; size-exclusion elution profiles of the purified proteins against marker proteins
# [17] = biological target: TRAIL-R2 ECD (Homo sapiens) (UniProt O14763); assay: SPR; details: cited from earlier work
# [18] = biological target: TRAIL-R1 ECD (Homo sapiens) (UniProt O00220); assay: SPR; details: cited from earlier work
# Sequence of TRAIL-R1 ECD (Homo sapiens) (O00220 24-239): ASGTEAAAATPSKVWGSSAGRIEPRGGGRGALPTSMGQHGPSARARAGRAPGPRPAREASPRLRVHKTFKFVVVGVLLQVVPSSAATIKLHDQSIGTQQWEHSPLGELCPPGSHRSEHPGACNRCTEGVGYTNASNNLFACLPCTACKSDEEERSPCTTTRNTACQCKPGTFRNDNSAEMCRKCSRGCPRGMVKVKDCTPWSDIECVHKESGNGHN
# Sequence of TRAIL-R1-Fc fusion protein (O00220 24-239): as above
# Sequence of Human CD155-Fc fusion protein (human) (P15151 21-343): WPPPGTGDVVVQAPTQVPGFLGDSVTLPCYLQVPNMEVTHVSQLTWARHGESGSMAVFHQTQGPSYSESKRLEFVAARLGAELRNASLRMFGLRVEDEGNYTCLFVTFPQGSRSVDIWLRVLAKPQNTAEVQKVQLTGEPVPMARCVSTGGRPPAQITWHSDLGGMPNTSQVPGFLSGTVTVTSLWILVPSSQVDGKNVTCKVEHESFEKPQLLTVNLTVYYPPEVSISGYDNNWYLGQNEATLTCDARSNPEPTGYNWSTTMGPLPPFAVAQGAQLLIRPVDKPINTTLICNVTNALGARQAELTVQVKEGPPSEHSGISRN
substance,measurement,setting,value
"HCMV UL141 ectodomain, soluble (released from the thrombin-cleavable Fc fusion) (from UniProt Q6RJQ3 37-278) (domain or fragment)",Kd,[1],42.7 nM
same,koff,[1],0.00064 s⁻¹
same,kon,[1],15000 M⁻¹ s⁻¹
same,Kd,[2],7.49 nM
same,koff,[2],0.000382 s⁻¹
same,kon,[2],51000 M⁻¹ s⁻¹
same,Kd,[3],15.5 nM
same,koff,[3],0.00048 s⁻¹
same,kon,[3],31000 M⁻¹ s⁻¹
same,Kd,[4],55.3 nM
same,koff,[4],0.0013 s⁻¹
same,kon,[4],23500 M⁻¹ s⁻¹
same,Kd,[5],630 nM
same,koff,[5],0.00566 s⁻¹
same,kon,[5],8980 M⁻¹ s⁻¹
same,Kd,[6],7.39 nM
same,koff,[6],0.00027 s⁻¹
same,kon,[6],36500 M⁻¹ s⁻¹
same,Kd,[7],6.26 nM
same,koff,[7],0.000243 s⁻¹
same,kon,[7],38800 M⁻¹ s⁻¹
same,Kd,[8],7.74 nM
same,koff,[8],0.00038 s⁻¹
same,kon,[8],49100 M⁻¹ s⁻¹
same,Kd,[9],8.32 nM
same,koff,[9],0.000391 s⁻¹
same,kon,[9],47000 M⁻¹ s⁻¹
same,Kd,[10],60.4 nM
same,koff,[10],0.00151 s⁻¹
same,kon,[10],25000 M⁻¹ s⁻¹
Pre-formed UL141–TRAIL-R2 complex (from UniProt Q6RJQ3;O14763),K Dave,[11],2 nM
same,Kd,[11],2.19 nM
same,koff,[11],0.000333 s⁻¹
same,kon,[11],152000 M⁻¹ s⁻¹
"Recombinant UL141 ectodomain (soluble, released from the Fc fusion) (from UniProt Q6RJQ3 37-278) (domain or fragment)",Kd,[3],15 nM
same,Kd,[4],55 nM
same,Kd,[5],630 nM
same,K Dave,[11],2 nM
same,Kd,[11],1.97 nM
same,koff,[11],0.000346 s⁻¹
same,kon,[11],176000 M⁻¹ s⁻¹
same,Kd,[12],43 nM
same,KDeq,[13],2.27 µM
same,Kd,[13],2330 nM
same,koff,[13],0.014 s⁻¹
same,kon,[13],6020 M⁻¹ s⁻¹
same,Kd,[14],5.96 nM
same,koff,[14],7.21e-05 s⁻¹
same,kon,[14],12100 M⁻¹ s⁻¹
same,fold reduction of binding affinity against wild type,[15],10 fold
same,stoichiometry N,[16],2
UL141 (from UniProt Q6RJQ3),Kd,[17],6 nM
same,Kd,[18],2300 nM
